In patent US6746859:

Assays:
[1] = target: T1, E. coli thioredoxin/human IL-11 fusion protein with enterokinase cleavage spacer (UniProt P20809)
T1 sequence: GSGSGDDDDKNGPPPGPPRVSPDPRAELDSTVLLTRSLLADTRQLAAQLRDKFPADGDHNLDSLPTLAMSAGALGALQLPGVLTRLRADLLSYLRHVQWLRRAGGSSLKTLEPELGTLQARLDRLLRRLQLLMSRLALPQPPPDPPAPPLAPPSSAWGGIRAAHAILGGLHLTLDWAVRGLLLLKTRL

[2] = system: T2, Gly-(Asp4)-Lys-βNA fluorogenic enterokinase substrate
T2 sequence: GDDDDK

With “bovine-derived enterokinase holoenzyme (heavy and light chains)” the EFFICIENCY OF CLEAVAGE (relative molar activities) (relative molar activity) [1] was 1, the EFFICIENCY OF CLEAVAGE (relative molar activities) (relative molar activity) [2] was 1 and the EFFICIENCY OF CLEAVAGE (relative molar activities) (relative molar activity) (Trypsinogen) was 100.
